To fix the notation:
T1: CD123 (Homo sapiens (Human), UniProt P26951 19-305, limits assumed)
T1 construct: The CD123 construct used in the ELISA is not described; also called CD123-Signal
T1 sequence: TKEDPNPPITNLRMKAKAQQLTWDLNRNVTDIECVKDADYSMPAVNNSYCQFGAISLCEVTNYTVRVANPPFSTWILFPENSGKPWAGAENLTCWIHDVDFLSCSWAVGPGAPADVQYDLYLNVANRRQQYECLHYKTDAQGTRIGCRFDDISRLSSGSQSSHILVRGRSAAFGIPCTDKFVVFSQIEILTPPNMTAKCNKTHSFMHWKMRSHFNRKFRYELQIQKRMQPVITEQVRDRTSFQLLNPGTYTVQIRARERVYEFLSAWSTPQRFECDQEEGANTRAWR

B1: D domain of SEQ ID NO: 508 (designed binder)
chain: MGSWSWFKEDLAEIKMELEALGGSEAELAYFEWYIAEFEFQLQHYKGKGNPEVEALRKEAAAIRDELQAYRHN
B2: D domain of SEQ ID NO: 509 (designed binder)
chain: B1 chain with E9Q, E13D, M16I, E17Q, Y30W, Y34D, Q41E, H44D
B3: D domain of SEQ ID NO: 510 (designed binder)
chain: B1 chain with E13D, M16F, Y30W, W33L, Y34D, E37D, F40Q, Q41A, H44Q
B4: D domain of SEQ ID NO: 511 (designed binder)
chain: B1 chain with E13S, M16A, E17V, Y30F, W33S, Y34D, F40Q, Q41E, H44Y
B5: D domain of SEQ ID NO: 524 (designed binder)
chain: B1 chain with S5Y, W6I, M16E, W33E, Y34E, E37L, F40M, Q41E, H44W
B6: D domain of SEQ ID NO: 487 (designed binder)
chain: MGSWEFFKYELADIKDELEALGGSEAELAWFEEDIATFEEWLQGYKGKGNPEVEALRKEAAAIRDELQAYRHN
B7: D domain of SEQ ID NO: 493 (designed binder)
chain: B6 chain with E5H, F6L, Y9W, E10T, D13E, D16Y, E33D, W41E, G44W
B8: D domain of SEQ ID NO: 496 (designed binder)
chain: B6 chain with F6T, D13E, E17Y, E33D, T37E, E40F, W41E, G44Y
B9: D domain of SEQ ID NO: 489 (designed binder)
chain: B6 chain with E5Y, F6W, Y9E, D13F, D16W, W30L, T37Y, W41M, G44E
B10: D domain of SEQ ID NO: 490 (designed binder)
chain: B6 chain with E5N, F6S, Y9D, D13E, D16A, W30F, T37W, W41H, G44Q
B11: D domain of SEQ ID NO: 488 (designed binder)
chain: B6 chain with E5Q, F6T, Y9D, D13H, D16W, E33W, T37N, W41E, G44E
B12: D domain of SEQ ID NO: 497 (designed binder)
chain: MGSWNTFKYELAEIKHFLEALGGSEAELAMFEDDIAMFEWELQEYKGKGNPEVEALRKEAAAIRDELQAYRHN
B13: D domain of SEQ ID NO: 514 (designed binder)
chain: MGSWNEFKDDLAMIKMTLEALGGSEAELAWFEHDIAEFEDDLQWYKGKGNPEVEALRKEAAAIRDELQAYRHN
B14: D domain of SEQ ID NO: 515 (designed binder)
chain: B13 chain with N5T, E6F, M13E, M16W, T17M, H33S, E37Y, D41E
B15: D domain of SEQ ID NO: 516 (designed binder)
chain: B13 chain with N5S, E6D, M13E, T17I, W30Y, H33N, E37W, W44E
B16: D domain of SEQ ID NO: 518 (designed binder)
chain: B13 chain with N5Q, E6Y, M13E, T17V, H33A, E37M, W44I
B17: D domain of SEQ ID NO: 517 (designed binder)
chain: B13 chain with N5S, E6M, M13E, M16A, T17S, H33D, E37W, W44H
B18: D domain of SEQ ID NO: 513 (designed binder)
chain: B13 chain with N5E, E6W, D9S, M13S, M16W, T17E, D40E
B19: D domain of SEQ ID NO: 499 (designed binder)
chain: MGSWIFFKEQLAIIKWELEALGGSEAELAWFEDDIAAFEDDLQFYKGQGNPEVEALRKEAAAIRDELQAYRHN
B20: D domain of SEQ ID NO: 529 (designed binder)
chain: B19 chain with I5Y, F6M, Q10E, I13D, E17Y, A37G, D40W, F44A, Q48K
B21: D domain of SEQ ID NO: 502 (designed binder)
chain: MGSWEEFKEDLAEIKVWLEALGGSEAELAWFEMGIADFEDGLQFYKGKGNPEVEALRKEAAAIRDELQAYRHN
B22: D domain of SEQ ID NO: 521 (designed binder)
chain: B21 chain with E5A, E6W, W17F, W30E, M33V, G34S, D40Y, G41E, F44D
B23: D domain of SEQ ID NO: 503 (designed binder)
chain: B21 chain with E5H, E6W, E13N, V16D, M33D, G34N, D40G, G41D, F44V
B24: D domain of SEQ ID NO: 512 (designed binder)
chain: B21 chain with E5W, V16W, W17F, M33H, G34D, D37K, D40F, G41E, F44Y
B25: D domain of SEQ ID NO: 523 (designed binder)
chain: MGSWYDFKYDLAEIKMDLEALGGSEAELAQFEFDIAFFEEELQDYKGKGNPEVEALRKEAAAIRDELQAYRHN
B26: D domain of SEQ ID NO: 500 (designed binder)
chain: MGSWEFFKEVLAEIKYDLEALGGSEAELAWFETDIAGFEIDLQVYKGKGNPEVEALRKEAAAIRDELQAYRHN
B27: D domain of SEQ ID NO: 520 (designed binder)
chain: B21 chain with E5M, D10E, V16Y, W17I, M33Q, G34S, D40Y, G41D, F44D
B28: D domain of SEQ ID NO: 501 (designed binder)
chain: B21 chain with E5V, E6F, E13T, V16N, W17D, G34M, D40A, G41D, F44Y
B29: D domain of SEQ ID NO: 504 (designed binder)
chain: MGSWFWFKEDLAFIKEDLEALGGSEAELAWFEDGIAFFEWDLQDYKGKGNPEVEALRKEAAAIRDELQAYRHN
B30: D domain of SEQ ID NO: 507 (designed binder)
chain: B29 chain with F5N, F13I, E16M, D33H, G34N, F37G, W40F, D41E, D44G
B31: D domain of SEQ ID NO: 522 (designed binder)
chain: B29 chain with F5Y, W6E, E9F, F13E, D17Q, W30L, G34D, W40Y, D44N
B32: D domain of SEQ ID NO: 506 (designed binder)
chain: B29 chain with F5H, F13I, E16Q, W30T, D33Q, G34W, F37E, D44E
B33: D domain of SEQ ID NO: 505 (designed binder)
chain: B29 chain with F5Q, F13E, E16H, G34F, F37Q, W40F, D44W
B34: D domain of SEQ ID NO: 527 (designed binder)
chain: MGSWDHFKNDLAWIKKHLEALGGSEAELAEFEAVIAYFELYLQGYKGKGNPEVEALRKEAAAIRDELQAYRHN
B35: D domain of SEQ ID NO: 534 (designed binder)
chain: MGSWNFFKYDLADIMAYLEALGGSEAELAFFEDEIANFEHDLQKYKGKGNPEVEALRKEAAAIRDELQAYRHN
B36: D domain of SEQ ID NO: 530 (designed binder)
chain: MGSWYYFKDELADIKWDLEALGGSEAELAWFEMLIAQFELDLQWYKGKGNPEVEALRKEAAAIRDELQAYRHN
B37: D domain of SEQ ID NO: 532 (designed binder)
chain: B36 chain with Y6Q, D9H, E10D, W16Y, D17G, M33D, L34D, Q37D, W44Y
B38: D domain of SEQ ID NO: 531 (designed binder)
chain: B36 chain with Y5M, E10T, D17Y, W30F, M33D, L34W, Q37E, L40D, W44V
B39: D domain of SEQ ID NO: 533 (designed binder)
chain: B36 chain with Y6V, E10D, W16Y, D17M, M33W, L34E, Q37N, L40F, W44Y
B40: D domain of SEQ ID NO: 494 (designed binder)
chain: B12 chain with N5V, Y9D, E13D, H16D, M30F, D33V, M37E, W40A, E44F
B41: D domain of SEQ ID NO: 498 (designed binder)
chain: B12 chain with N5Y, T6V, Y9D, H16Q, M30W, M37E, W40T, E41Q, E44H
B42: D domain of SEQ ID NO: 495 (designed binder)
chain: B6 chain with E5V, F6Y, Y9D, E17F, W30E, E40Y, W41D, G44W
B43: D domain of SEQ ID NO: 491 (designed binder)
chain: MGSWDLFKWELAEIKLGLEALGGSEAELAEFEYDIAWFEEDLQDYKGKGNPEVEALRKEAAAIRDELQAYRHN
B44: D domain of SEQ ID NO: 492 (designed binder)
chain: B43 chain with D5I, L6F, W9Q, E10D, G17N, E30W, Y33D, E40S, D41H
B45: D domain of SEQ ID NO: 525 (designed binder)
chain: MGSWVLFKEELAYIKFELEALGGSEAELALFENVIAIFESNLQNYKGKGNPEVEALRKEAAAIRDELQAYRHN
B46: D domain of SEQ ID NO: 535 (designed binder)
chain: MGSWHWFKIVLADIKDGLEALGGSEAELAYFETTIADFEMDLQHYKGKGNPEVEALRKEAAAIRDELQAYRHN
B47: D domain of SEQ ID NO: 528 (designed binder)
chain: MGSWYDFKEDLADIKWMLEALGGSEAELAEFENVIAYFENDLQEYKGKGNPEVEALRKEAAAIRDELQAYRHN
B48: D domain of SEQ ID NO: 526 (designed binder)
chain: MGSWQDFKEDLAWIKYELEALGGSEAELAFFEYDIAIFENNLQHYKGKGNPEVEALRKEAAAIRDELQAYRHN
B49: D domain of SEQ ID NO: 519 (designed binder)
chain: MGSWSFFKDDLAEIKYFLEALGGSEAELAMFEQTIAEFEYDLQDYKGKGNPEVEALRKEAAAIRDELQAYRHN

Numbering of substitutions follows the chain as printed.

The assay addresses T1, CD123. Put plainly: ELISA. The arrangement: unit not given here. Background: An ELISA detects its analyte on a solid surface through an enzyme-linked reagent.
In turn, B1 yielded an ELISA_avg of 4.8.
The same measure for B2: 4; for B3: 6.8.
The same measure for B4: 6.9; for B5: 11.1; for B6: 3.4.
For B7, the ELISA_avg turned out to be 4.
With B8 the figure was 4.4.
The same measure for B9: 9.4; for B10: 3.3.
Regarding B11, the ELISA_avg is 5.5.
The same measure for B12: 5; for B13: 3.5; for B14: 3.3.
The same measure for B15: 4.7; for B16: 3.6.
With B17 the figure was 5.2; with B18, 5.7; with B19, 15.
Consider B20, for which the ELISA_avg was 7.
Take B21: the ELISA_avg came out at 4.3.
The same measure for B22: 3.5; for B23: 3.3; for B24: 5.1.
The same measure for B25: 3.2.
With B26 the figure was 8.2; with B27, 5.
B28 yielded an ELISA_avg of 3.1.
Consider B29, for which the ELISA_avg amounted to 13.7.
The same measure for B30: 3.1.
The same measure for B31: 4.6; for B32: 5.5.
The same measure for B33: 3.8; for B34: 3.3; for B35: 4.4.
Molecule B36 came in with an ELISA_avg of 4.
The same measure for B37: 4.7.
For the molecule B38, the ELISA_avg worked out at 3.1.
B39 showed an ELISA_avg of 3.8.
As to B40, the ELISA_avg is 7.6.
B41: the ELISA_avg came to 9.9.
As for B42, the ELISA_avg came out at 4.6.
Molecule B43 showed an ELISA_avg of 3.4.
The same measure for B44: 3.8.
As for B45, the ELISA_avg turned out to be 3.5.
B46 showed an ELISA_avg of 4.3.
For B47, the ELISA_avg came to 8.
The same measure for B48: 3.2; for B49: 10.1.

These data come from US20250026849A1 (ARCELLX, published 2025).
